Reference: paper PMC8764063

Biological target: T1, IRF3 (human (endogenous in U2OS)), Q14653
T1 chain: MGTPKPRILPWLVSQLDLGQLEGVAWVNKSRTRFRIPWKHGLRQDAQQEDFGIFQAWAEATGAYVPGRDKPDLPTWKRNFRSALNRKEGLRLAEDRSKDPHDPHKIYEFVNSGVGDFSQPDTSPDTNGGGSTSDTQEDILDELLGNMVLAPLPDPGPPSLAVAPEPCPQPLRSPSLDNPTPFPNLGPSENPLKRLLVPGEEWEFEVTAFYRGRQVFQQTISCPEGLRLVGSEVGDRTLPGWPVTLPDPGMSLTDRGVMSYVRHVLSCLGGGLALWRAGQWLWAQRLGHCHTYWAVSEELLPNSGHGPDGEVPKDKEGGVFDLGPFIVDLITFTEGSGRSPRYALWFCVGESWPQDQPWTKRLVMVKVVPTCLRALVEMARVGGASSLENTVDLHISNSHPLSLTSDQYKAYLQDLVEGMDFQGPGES
Assay: native gel or EMSA; native gel and Western blot for IRF3 of lysates (TBS lysis buffer: 20 mM Tris pH 7.5, 150 mM NaCl, 0.5% NP-40) of wild-type, PARP1 D214N or PARP1 KO U2OS cells with or without poly(dA-dT) (5 ug/ml, six hours); monomer to dimer
Settings: remark: other sources report otherwise

stoichiometry N: 2
B1: IRF3, Q14653 1-427 (natural protein)
chain: MGTPKPRILPWLVSQLDLGQLEGVAWVNKSRTRFRIPWKHGLRQDAQQEDFGIFQAWAEATGAYVPGRDKPDLPTWKRNFRSALNRKEGLRLAEDRSKDPHDPHKIYEFVNSGVGDFSQPDTSPDTNGGGSTSDTQEDILDELLGNMVLAPLPDPGPPSLAVAPEPCPQPLRSPSLDNPTPFPNLGPSENPLKRLLVPGEEWEFEVTAFYRGRQVFQQTISCPEGLRLVGSEVGDRTLPGWPVTLPDPGMSLTDRGVMSYVRHVLSCLGGGLALWRAGQWLWAQRLGHCHTYWAVSEELLPNSGHGPDGEVPKDKEGGVFDLGPFIVDLITFTEGSGRSPRYALWFCVGESWPQDQPWTKRLVMVKVVPTCLRALVEMARVGGASSLENTVDLHISNSHPLSLTSDQYKAYLQDLVEGMDFQGPGES
